What was measured:
Myostatin [1] = target: Myostatin (UniProt O14793); assay: SPR (Biacore T100), myostatin injected, Langmuir 1:1 model
Myostatin [2] = target: Myostatin (UniProt O14793); assay: SPR (Biacore T100): Fc fusion captured by anti-human antibody on a CM4 chip, myostatin injected as analyte, Langmuir 1:1 model
Myostatin [3] = target: Myostatin (UniProt O14793); assay: cell-based or functional assay

Sequence of Myostatin (O14793 267-375 limits assumed): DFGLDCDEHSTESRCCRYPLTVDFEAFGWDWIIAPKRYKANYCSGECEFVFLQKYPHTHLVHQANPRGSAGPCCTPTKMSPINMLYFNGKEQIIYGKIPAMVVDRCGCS
Sequence of Activin Receptor 2B-FC (Fc fusion) (Q13705 19-137): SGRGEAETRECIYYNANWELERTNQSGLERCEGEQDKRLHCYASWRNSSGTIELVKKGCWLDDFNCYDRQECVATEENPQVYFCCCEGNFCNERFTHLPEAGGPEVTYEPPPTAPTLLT

Substance | Kd (Myostatin [1]) | koff (Myostatin [2]) | kon (Myostatin [2]) | IC50 of inhibition of myostatin dependent SMAD2/3 activation (luciferase reporter, HEK293, 0.1 nM myostatin) (Myostatin [3])
Activin Receptor 2B-FC (Fc fusion) | 2.5 nM | 0.00098 s⁻¹ | 390000 M⁻¹ s⁻¹ | 
hNOPE (1-620) ECD-FC (Fc fusion) |  |  |  | 0.17 nM
